# Test results reported in paper PMC4259341.
# Test: western blot of conditioned medium, 24 h
# Conditions: glycan lost; control: wild type
row,Substance,expression_or_secretion
1,antithrombin: S137A,no change
2,antithrombin: S137T,no change
